These results are taken from US20250026815A1.

Read-outs that look alike come from different tables or passages of the source.

For experiment [1], the target named is recombinant RSV-F protein (RSV A2 strain fusion (F) protein with added His tag) (human respiratory syncytial virus, A2 strain) (UniProt P03420). The experiment in a line: SPR (Biacore), antibody captured, RSV-F as analyte; column head prints nM, Kd/Ka gives M. (In general: Surface plasmon resonance follows binding to a sensor surface in real time, without labels.)
Chain of recombinant RSV-F protein (RSV A2 strain fusion (F) protein with added His tag) (human respiratory syncytial virus, A2 strain) (P03420 26-109, chain 1 of 2): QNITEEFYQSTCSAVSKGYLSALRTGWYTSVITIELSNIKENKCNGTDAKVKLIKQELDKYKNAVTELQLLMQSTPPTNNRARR
Chain of recombinant RSV-F protein (RSV A2 strain fusion (F) protein with added His tag) (human respiratory syncytial virus, A2 strain) (P03420 137-524, chain 2 of 2): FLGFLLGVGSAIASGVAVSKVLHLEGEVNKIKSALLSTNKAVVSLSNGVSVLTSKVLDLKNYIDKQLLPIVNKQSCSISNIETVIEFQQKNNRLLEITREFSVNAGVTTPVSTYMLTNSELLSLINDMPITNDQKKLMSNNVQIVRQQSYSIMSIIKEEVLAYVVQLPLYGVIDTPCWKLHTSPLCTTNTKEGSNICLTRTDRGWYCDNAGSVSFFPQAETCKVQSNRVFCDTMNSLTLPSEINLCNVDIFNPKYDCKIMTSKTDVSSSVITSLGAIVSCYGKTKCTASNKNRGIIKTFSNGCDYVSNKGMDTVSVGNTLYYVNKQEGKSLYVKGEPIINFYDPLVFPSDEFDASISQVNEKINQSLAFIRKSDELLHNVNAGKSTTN

Experiment [2] concerns the target RSV-F protein of RSV B9320 virus (as carried by the live virus in the neutralisation assay) (human respiratory syncytial virus, strain B9320). Description: cell-based or functional assay.
The target of experiment [3] is RSV-F protein of RSV A2 virus (as carried by the live virus in the neutralisation assay) (human respiratory syncytial virus, strain A2) (UniProt P03420). The experiment in a line: cell-based or functional assay.
Chain of RSV-F protein of RSV A2 virus (as carried by the live virus in the neutralisation assay) (human respiratory syncytial virus, strain A2) (P03420 26-574): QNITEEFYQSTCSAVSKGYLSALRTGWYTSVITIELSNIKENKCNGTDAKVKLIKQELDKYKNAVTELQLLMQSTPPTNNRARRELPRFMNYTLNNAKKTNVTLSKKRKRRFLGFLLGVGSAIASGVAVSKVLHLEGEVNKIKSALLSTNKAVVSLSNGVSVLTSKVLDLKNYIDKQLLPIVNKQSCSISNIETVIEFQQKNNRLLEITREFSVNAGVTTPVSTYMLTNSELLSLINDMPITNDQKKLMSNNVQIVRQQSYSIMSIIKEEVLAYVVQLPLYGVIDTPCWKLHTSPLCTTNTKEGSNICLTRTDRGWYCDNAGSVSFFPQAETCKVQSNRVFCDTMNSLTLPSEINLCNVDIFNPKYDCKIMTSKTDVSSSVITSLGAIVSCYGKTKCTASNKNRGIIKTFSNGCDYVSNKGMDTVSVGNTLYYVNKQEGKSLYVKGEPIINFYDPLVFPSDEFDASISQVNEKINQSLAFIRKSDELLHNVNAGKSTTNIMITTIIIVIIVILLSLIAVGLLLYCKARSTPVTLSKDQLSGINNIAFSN
The target in experiment [4] is RSV-F protein of RSV A Long virus (as carried by the live virus in the neutralisation assay) (human respiratory syncytial virus, strain A Long) (UniProt P12568). The experiment in a line: cell-based or functional assay.
Experiment [5] deals with RSV-F protein of RSV B9320 virus (as carried by the live virus in the neutralisation assay) (human respiratory syncytial virus, strain B9320). The experiment in a line: cell-based or functional assay. This is another data set of the same source.
The target of experiment [6] is RSV-F protein of RSV A2 virus (as carried by the live virus in the neutralisation assay) (human respiratory syncytial virus, strain A2) (UniProt P03420). The experiment in a line: cell-based or functional assay. The source holds these as a separate data set.
Experiment [7] concerns the target RSV-F protein of RSV A Long virus (as carried by the live virus in the neutralisation assay) (human respiratory syncytial virus, strain A Long) (UniProt P12568). The experiment in a line: cell-based or functional assay. The source holds these as a separate data set.
The target of experiment [8] is recombinant RSV-F protein (RSV A2 strain fusion (F) protein with added His tag) (human respiratory syncytial virus, A2 strain) (UniProt P03420). Description: SPR (Biacore), antibody captured, RSV-F as analyte.

On to Palivizumab (antibody), for which the Kd in experiment [1] stood at 0.0628 nM. Also, the Absolute IC50, neutralizing RSV B9320 (HEp-2 cells, indirect ELISA) in experiment [2] was 1.07 µg/mL; in experiment [5] it was 0.481 µg/mL. Further, the Absolute IC50, neutralizing RSV A2 (HEp-2 cells, indirect ELISA) in experiment [3] is 1.06 µg/mL; in experiment [6], 3.04 µg/mL. For the same substance, the Absolute IC50, neutralizing RSV A Long (HEp-2 cells, indirect ELISA) stood at 0.232 µg/mL in experiment [4] and 1.59 µg/mL in experiment [7]. For the same substance, the kon in experiment [8] worked out at 1.2e+06 M⁻¹ s⁻¹.

The term Kd denotes a measure of binding affinity in units of concentration. A word on the kon: it is a measure of how fast the partners come together.
